The values below come from article PMC10570035.

In test [1] the target is 40S ribosomal subunit (rabbit reticulocyte lysate) (rabbit (endogenous in rabbit reticulocyte lysate)) (UniProt G1TM55).
The target is the same in test [2]. The source holds these as a separate data set.
Test [3] shares this target. The source holds these as a separate data set.
Test [4] shares this target. The source holds these as a separate data set.

Where two headings read alike, the source gives them in different places.

With “MBP-eIF2A-His6 (from UniProt Q9BY44-1 1-585) (natural protein)”, in test [1], the in vitro translation of nLuc mRNA in 20% RRL, titration of recombinant protein (0-3.4 μM); IC50 of inhibition of translation was 0.19 µM.
Turning to “MBP-eIF2A-His6-FLAG (from UniProt Q9BY44-1 1-585) (natural protein)”, in test [2], the in vitro translation of nLuc mRNA in 20% RRL, titration of recombinant protein (0-3.4 μM); IC50 of inhibition of translation is 0.37 µM. In test [3], this substance gave an in vitro translation of CrPV IGR IRES nLuc mRNA in RRL, titration (0-3.4 μM); IC50 of inhibition of translation of 0.63 µM; an in vitro translation of EMCV IRES nLuc mRNA in RRL, titration (0-3.4 μM); IC50 of inhibition of translation of 0.69 µM; an in vitro translation of HCV IRES nLuc mRNA in RRL, titration (0-3.4 μM); IC50 of inhibition of translation of 0.49 µM; an in vitro translation of PV IRES nLuc mRNA in RRL, titration (0-3.4 μM); IC50 of inhibition of translation of 0.84 µM.
For “tag-less eIF2A (from UniProt Q9BY44-1 1-585) (natural protein)”, in test [4], the in vitro translation of nLuc mRNA in 20% RRL, titration of recombinant protein (0-3.4 μM); IC50 of inhibition of translation worked out at 0.13 µM.
